Assay [1] addresses human anti-HIV-1 (gp120 recognizing) antibody 2G12. Put plainly: cell-based or functional assay.
Assay [2] concerns the target human monoclonal anti-HIV-1 antibody 2F5 (isotype not stated in the assay). Nature of the assay: cell-based or functional assay.
For assay [3] the target is unchanged. Nature of the assay: competition ELISA: 50 ng/mL 3H6 preincubated with 31 ng/mL 2F5, then 2F5 binding to coated …. A general note: In an ELISA, binding on a coated surface is turned into a signal by an enzyme label.
For assay [4] the target is unchanged. Nature of the assay: competition ELISA: 500 ng/mL 3H6 preincubated with 31 ng/mL 2F5, then 2F5 binding to coated ….

Experimental findings from patent US7625566 are described below.

B1: murine monoclonal anti-idiotypic antibody (Ab2) 3H6 (antibody, V domains shown)
VH: GVQLQQSGPELVKTGASVKISCKASGYSFTDYFMHWVKQSHGKSLDWIGYINCYTGATNYSQKFKGKATFTVDTSSNTAYMQFNSLTSEDSAVYYCARTSIGYGSSPPFPYWGQGTLVTVSA
VL: ETTVTQSPASLSMSIGEKVTIRCITSTDIDDDMNWYQQKPGEPPRLLISDGNTLRPGVPSRFSSSGYGTDFVFTIENMLSEDVADYYCLQSDNLPYTFGGGTNLEIK
Regarding B1, the reduction of 2G12 (10 µg/mL) neutralization of HIV-1 NL4-3 in assay [1] was over 250 µg/mL. For the same molecule, in assay [2], the depletion of 2F5 (10 µg/mL) neutralization of HIV-1 NL4-3 on AA-2 cells, p24 ELISA came to 3.9 µg/mL; the reduction of 2F5 (10 µg/mL) neutralization at 3.9 µg/mL 3H6 is 95%; the reduction of the neutralizing capacity of 2F5 (10 µg/mL) at 1.9 µg/mL 3H6 is 5%. Also, the reduction of the OD in assay [3] was 37%. In assay [4], this molecule displayed a reduction of OD of 83%.
